Measurements: patent US11571459B2, “Methods for treating cancer using PS-targeting antibodies with immuno-oncology agents” (ONCXERNA THERAPEUTICS, INC., priority 2017, dated 2023)

Columns and labels:
[1] = tested on: advanced hepatocellular carcinoma (HCC); experiment: Phase II bavituximab and sorafenib in HCC; format: in vivo, human
Procedure: A Phase II, single institution study of bavituximab and sorafenib in advanced hepatocellular carcinoma (HCC) was conducted. […] Secondary endpoints included overall survival (OS), disease specific survival, 4 month progression free survival, safety and response rate. The study accrued 38 patients.

[2] = Further pharmacokinetic studies in over 120 patients with cancer or viral infections; format: in vivo, human
[3] = tested on: locally advanced or metastatic breast cancer; experiment: Phase II bavituximab plus paclitaxel and carboplatin in breast cancer; conditions: with paclitaxel and carboplatin
From the text: This Phase II study utilized a Simon 2-stage design. […] The primary objective was to determine the overall response rate (ORR), defined as complete response (CR) plus partial response (PR), CR+PR. Secondary objectives included time to tumor progression, duration of response (DOR or DR), overall survival (OS) and safety.

[4] = tested on: HCV and HIV; experiment: Phase Ib repeat-dose study in patients co-infected with chronic HCV and HIV; format: in vivo, human
Procedure: The primary objectives were to determine the safety, tolerability, PK profile, viral kinetics, MTD and/or MED. The study involved 16 scheduled visits over approximately 16 weeks. […] Dose escalation proceeded after all patients in the cohort had completed the first 4 weeks of dosing with no thrombotic events classified as serious adverse events (SAEs).
The median baseline HCV viral load was 6.76 log10 and the median baseline for HIV was 3.99 log10. Plasma viral loads of HCV and HIV were measured at specific time points during the study.

[5] = Administration to monkeys (safety); format: in vivo
[6] = biological target: T1, β2GPI (Homo sapiens, UniProt P02749); experiment: Antibody binding to β2GPI (domain mapping)
T1 sequence (P02749 20-345): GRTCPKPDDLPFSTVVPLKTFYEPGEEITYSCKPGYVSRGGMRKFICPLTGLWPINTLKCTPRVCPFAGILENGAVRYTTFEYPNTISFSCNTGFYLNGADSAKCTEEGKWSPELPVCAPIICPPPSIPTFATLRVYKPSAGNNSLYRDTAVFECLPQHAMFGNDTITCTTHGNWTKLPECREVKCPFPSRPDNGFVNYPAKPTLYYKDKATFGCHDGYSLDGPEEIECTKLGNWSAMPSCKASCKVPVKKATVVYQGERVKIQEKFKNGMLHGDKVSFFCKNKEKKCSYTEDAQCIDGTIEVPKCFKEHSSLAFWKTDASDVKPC
From the text: In summary, it was shown that the 3G4 antibody binds to β2GPI at domain II and that the lipid binding region of β2GPI domain V is required for co-binding of 3G4 (and ch3G4) and β2GPI to PS exposed on cells. […] Accordingly, antibody and β2GPI co-bind to PS exposed on the outer surfaces of membranes, such as occurs on activated endothelial cells, tumor vascular endothelial cells and tumor cells, as well as on virally infected cells.

[7] = tested on: HCV (genotype 1); experiment: Phase II study of bavituximab with ribavirin in chronic HCV (genotype 1); conditions: for patients with early virological response (EVR): Week 12
[8] = tested on: hepatitis C virus (HCV); experiment: Phase I single intravenous infusion dose escalation study in chronic HCV; format: in vivo, human; conditions: for Observed Cmax: HCV patients
Procedure: A Phase I, open-label, single center, dose escalation study evaluated a single intravenous infusion of bavituximab in patients chronically infected with HCV (Example III, A).
(§1) Bavituximab was first evaluated in Phase I, open-label, dose escalation studies and Phase Ib, open-label, escalating repeat-dose studies in patients chronically infected with hepatitis C virus (HCV). […] Doses of 0.1, 0.3, 1, 3 and 6 mg/kg were administered in Phase I (30 patients; successive cohorts of 6 patients), and doses of 0.3, 1, 3 and 6 mg/kg were administered in Phase Ib (24 patients; four cohorts of 6 patients).

[9] = tested on: tumors; experiment: Syngeneic and xenogeneic tumor models; format: in vivo, mice; conditions: wide range of studies
Procedure: The 3G4 antibody was purified to apparent homogeneity from the supernatant of the cultured hybridoma using a standard Protein A procedure.
In early studies in mice, it was calculated that molar ratios of β2GPI to antibody of between 0.12 and 0.25 were effective for anti-tumor activity, thus showing that high levels of β2GPI are not necessary for anti-tumor activity.

[10] = tested on: previously untreated locally advanced or metastatic non-squamous NSCLC; experiment: Phase II (PPHM 1001) paclitaxel/carboplatin with or without bavituximab; format: in vivo, human; conditions: bavituximab given with paclitaxel/carboplatin
[11] = tested on: hepatitis C virus (HCV); experiment: Phase Ib escalating repeat-dose study in chronic HCV; format: in vivo, human; conditions: for viral load: Phase Ib
Procedure: as §1

bavituximab
patients with increased infiltration of activated tumor-fighting T-cells (CD8) into the tumor microenvironment ([1]; after one cycle): Three of the six patients
anorexia, all grade ([1]; with sorafenib): 24%
diarrhea, all grade ([1]; with sorafenib): 32%
fatigue, all grade ([1]; with sorafenib): 26%
four month PFS ([1]; with sorafenib): 61%
median OS (mOS) ([1]; with sorafenib): 6.2 months
partial response ([1]; with sorafenib): Two patients achieved partial response
tolerability ([1]; with sorafenib): well tolerated
grade 4 or 5 adverse events ([1]; with sorafenib, 38 patients): no grade 4 or 5 adverse events recorded
PK linearity ([2]; doses 0.1 to 6 mg/kg): linear single-dose and multiple-dose PK characteristics
time by which distribution phase is essentially complete ([2]; where observed): ≤ 6 h
median PFS [3]: 6.9 months
median duration of response (DOR) [3]: 3.7 months
CR ([3]; 46 patients): 10.9%
Grade 3 anemia ([3]; 46 patients): 10.9%
Grade 3 leukopenia ([3]; 46 patients): 23.9%
Grade 3 neutropenia ([3]; 46 patients): 19.6%
Grade 4 neutropenia ([3]; 46 patients): 26.1%
PR ([3]; 46 patients): 63.0%
objective response per RECIST ([3]; 46 patients): 73.9%
median OS ([3]; at study closure): 23.2 months
accumulation / time-dependent PK differences ([4]; 0.3 to 6 mg/kg once weekly for 8 weeks): did not exhibit time-dependent PK differences or accumulation
maximum reduction in HCV and/or HIV viral load from baseline ([4]; several patients in each treatment group, all dose levels): ≥ 0.5 log10
effect on β2GPI in the systemic circulation ([5]; 100 mg/kg): transiently decreased β2GPI in the systemic circulation
doses safely administered ([5]; doses above 10 mg/kg): up to 100 mg/kg
β2GPI domain bound [6]: bind to domain II of β2GPI
patients with early virological response (EVR) ([7]; 0.3 mg/kg weekly with ribavirin): 18%
patients with early virological response (EVR) ([7]; 3 mg/kg weekly with ribavirin): 9%
safety profile / patients reporting AEs ([7]; all with ribavirin): more favorable safety profile
viral reduction ([7]; plus ribavirin, 12 weeks): gradual viral reduction over 12 weeks was seen in some patients
Observed Cmax ([8]; 0.1 mg/kg single infusion): 2500 ng/mL
Observed Cmax ([8]; 0.3 mg/kg single infusion): 5700 ng/mL
Observed Cmax ([8]; 1 mg/kg single infusion): 24300 ng/mL
Observed Cmax ([8]; 3 mg/kg single infusion): 75800 ng/mL
Observed Cmax ([8]; 6 mg/kg single infusion): 135000 ng/mL
tolerability ([8]; Phase I and Phase Ib, 0.1 to 6 mg/kg): all dose levels of bavituximab were well tolerated
viral load ([8]; Phase I, all dose levels): transient reductions in viral load
in vivo localization and effects [9]: localize to tumor vascular endothelium and to exert anti-tumor effects and anti-viral effects
mOS ([10]; functional β2GPI less than 200 μg/mL): 14.2 months
mOS ([10]; functional β2GPI ≥200 μg/mL): 17.0 months
viral load ([11]; 3 mg/kg, throughout treatment and follow-up): consistent decreases in HCV
viral load ([11]; doses of 0.3, 1 and 6 mg/kg): small decreases in viral load
accumulation / time-dependent PK differences ([11]; all dose levels, day 0 and day 10): no evidence of accumulation of bavituximab or time-dependent PK differences
